Measurements taken from the DeepSol protein solubility set.

Test: soluble on expression in E. coli; label from the status in PepcDB or PDB records

Sequence | soluble on expression in E. coli
AHHHHHHGSEELIREVILKNLTLNSAGGIGLEELDDGATIPLGDKHLVFTIDGHTVKPIFFPGGDIGRLAVSGTVNDLAVMGAQPLAIASSLIIEEGFEVSELEKILKSMDETAKEVPVPIVTGDTKVVEDRIGIFVITAGVGVAERPISDAGAKVGDVVLVSGTIGDHGIALMSHREGISFETELKSDVAPIWDVVKAVADAIGWENIHAMKDPTRGGLSNALNEMARKANVGILVREEAIPIRPEVKAASEMLGISPYEVANEGKVVMIVAKEYAEEALEAMKKTEKGRDAAIIGEVIGEYRGKVILETGIGGRRFLEPPLGDPVPRVC | soluble
DGYHLLQELGAIELAGDGEAAEAGGGGAAFRLTRTGQELAKLPVDPRIGRMILAAREQQCLAEMLIIAAALSVQDPRDRPMAEREAAESAHAKFADDKSEFLSFL | not soluble
MGSDKIHHHHHHMFAGAPLSMLLAMPHRPYRDEADLTLLLRWLSDHAPTTFMHPGDLVWWLYQNTQVDPRQALELLFDGEAGGNELQGFGYCDGSWSVLQGLPDLPAHVWDEMVAAAATRAGGKLTVQPHEWDTPQLAALKRAGFELTDNRMVRLVREVQPCDQEAVALPAGFHFADMSGSEVSPEDRVKVHQDVWHPSKVTLEAYGRLQAAPLYRPDLDVMVVAPSGEIAAYALGWFDPGSRTGLMEPVGTRAAFRRQGLGKGLIREVTHRFAALGAQKVTIGSYEKNVAAVALYTSAGYAARGFWVDWETETAAMKEGQDSA | not soluble
MGSDKIHHHHHHVRCLNEEIARKANREDECKGAFWEGRFKSQALLDEQALLACMMYVDLNPIRAGIADSLQSSDFTSIQERISALKQVNNTIISPQAPVQSAKNKPQTINKSLAKFDAATHSSQQTGIPFHFADYLELIDWTGRTIRHDKKGFIDNQRPKLLNELGIASDAWLSSAKDFRRQYSGISGRWDAMCAFKLQQGGKWCRGKSSCEALHPNQPLG | not soluble
MAHHHHHHMEQRELEKLFAPYGQILSAAVMRNIHTGNSLGTAFVRYASTEEAMSAIKGMSGKRIGGRAIAVQWAKKQHDYAPVGEARKKISKLFVRNIPLDINTVVLEDMFSMYGPVKSVSIHKDTAPDCDKNFERHIAFITFLADGAAERAAEAVHNTRPFPSCGKVPLMVKLAEDAPQRIHHGTGSKNSANALRTKQQLQGDMSAMSSGQEQFFDAPAVQQCFPTGTGTGAMVVAPTSYFSLLASGGLILPGSLPGAVMGSEAPYPWRTRVTWPQGTGVPFPFYNGGAAATAANPLAPSNACATPPSGSPVSCMNNGGFTSFPMYTTPFCPSTSPGLSGTQADSVAGSPLILPSSLHQ | not soluble
MGSDKIHHHHHHMYPGCRLCINIGDQFARSVYYGRYKVIPIRTEIIKFCETMGFDYMGAIIWQKVTTTNTTGGATIMGSFPYPRNGILKLDYEFILFFKKQGNAPKPTREQKERSVISKEDWNTYFSGHWYFSGVKQEGHIAMFPEELPARLIKMFAFVGDTVLDPFLGSGTTSMAARNLERNSIGYEINQDFIPAIRQKLNVCQMDIHGAEYSFLEDSATIDCEQEIEKLPYVFKDPHKLDKKIDPKKLLFGSKIDRNSADREEYFSVKEVISPEVIRLSNGLLIRLMGVRENTAMNGLAVNFITEKTKGQKIFLKFDLQKHDSQNRLLCYVYLKNKTFLNAHLIKEGLAIVDRSVDFRYKDKFMKLEAQCG | not soluble
MQSLNVNGTLMTYSESGDPHAPTLFLLSGWCQDHRLFKNLAPLLARDFHVICPDWRGHDAKQTDSGDFDSQTLAQDLLAFIDAKGIRDFQMVSTSHGCWVNIDVCEQLGAARLPKTIIIDWLLQPHPGFWQQLAEGQHPTEYVAGRQSFFDEWAETTDNADVLNHLRNEMPWFHGEMWQRACREIEANYRTWGSPLDRMDSLPQKPEICHIYSQPLSQDYRQLQLEFAAGHSWFHPRHIPGRTHFPSLENPVAVAQAIREFLQA | soluble
MRQLLLISDLDNTWVGDQQALEHLQEYLGDRRGNFYLAYATGRSYHSARELQKQVGLMEPDYWLTAVGSEIYHPEGLDQHWADYLSEHWQRDILQAIADGFEALKPQSPLEQNPWKISYHLDPQACPTVIDQLTEMLKETGIPVQVIFSSGKDVDLLPQRSNKGNATQYLQQHLAMEPSQTLVCGDSGNDIGLFETSARGVIVRNAQPELLHWYDQWGDSRHYRAQSSHAGAILEAIAHFDFLS | soluble
MLFELLYTSIAPAGLSDTELLSILEKARAKNQALDITGMLVYHNREIMQILEGEELKVRGLFQTIFQDERHTSVEVFYQGNIDHRAFSEWSMAFKLLDENTVKKMLIGYENFNPAKSPISMIASSPNRGKKTFLKLRDSL | soluble
MSLLDRLNDDMKQAMKNKEKEKLSVLRMLKAALQNEAIKLGKSPLSEDEELTVLSRELKQRKDSLQEFENAGRSDLVEKVKTEIEIVQSYMPTPLTEDELRELIEQTIKEVGASSKADMGKVMGAIMPKVKGRADGSLVNKLVQQQLS | soluble
MTIIGNPEIGLYTGKLPKGCELCRLGGKLVLFITGECDDNCYYCPVSDDRFGKNKIFANETEVNNSMDVIYEAYRMKALGAGITGGDPILEIGRVIEIIEELKNEFGYDFHIHLYTTGRYVNDDIMRELVNAGLDEMRFHPVKELYLNAVKVALKYDIDIGLELPAIPNEKDKIVRLIKWAEENNVKFVNLNELELNSRNYLNLNSKGFHAKHGITGVEGSFETALDVLKKFEDNKKITVHYCSSIYKDLVETRTRFFRIIKYSSKPYEEYTNEATVVRAIVKTKGEIPILENFGESTGSDEYSISPSIVGDLLNDYTNLINEIYIVEEHPDSRRLRVGEKLIYSKSKNS | not soluble
MGSDKIHHHHHHMNPELLQKYIAGNATEAEKQRVTEWIQENPENMREYMAQRKLHDMALWRTEPVAEENSRERKHFSLRGVCMEAAKIAAVLAIVLLGTHYWTGKHQVPEDKTWQSIYVPAGQRAELMLADGTKVWLNSRSTLTFPGSFKGNIRNVKLDGEGYFAVTKNVEQPFIVETNKCNVKVLGTEFNVMAYAADSVWETSLLEGAVEILVPGSNNSGMRLEPNMMASLKGNRLVKGRIKEVDYFLWREGLLCFNDISVRDMIEKLKLYYGVDIVVNNTRILKNRYTGKFRTKDGVEHVLKVLRLNNKFTYTKDDETNVITIN | not soluble
RDTVVTLLLDNSGSMRGRPISIAAICADVLARTLERCNVKVEILGFTTRAWKGGLAREAWLNEGRPQQPGRLNDLRHIIYKAADAPMRRTRQNLGLMMKEGLLKENIDGEALEWAHRRMLGRREQRKILMVISDGAPVDDSTLSVNPANYLEKHLRDVIAMVERRKQVELLAIGIGHDVTRYYQRAVTITDVEQLAGAMTEQLAALFDSDPRARARVMGMKRAS | not soluble
MENALSTLPLTAPSAELPRFGPPHIPIREDWLDRQREEILDPGLPIVDAHHHLWDRPGQRYMFEDFLRDTGSGHNIRATVYVQCRSMYRLDGPAAMRPVGEAEFVNGVAARSASGMYGPMRACAAIVGYADLTLGAAVEEVLHALVRAAPDRLRGVRNMTAAHASPAVAPGFGRVPEGLLSDARFRAGYARLAPLGLSYDVWAFHSQLAEVLDLARAYPDTALIVNHAGGPLGIGPYAGQRDAVMRDWDHHLRALADCPNVALKLGGLGMHISGLRFHEQDMPPSSEALAEAWRPWIHTAIERFGAQRCMFESNFPVDKGMAAYAAVWNAFKRLARGATPRERQALFAGTAARLYRLPASVLALEHHHHHH | not soluble
VLTCNEAFARMRGQSVKEIEGSSIVSLYAPEDQQMVKDKLKITDSTGFCSCQAKMMRKDGTIFPVQIDVVGLKDENGQIMYRIVTVQDSTER | not soluble
MSLSDFDYIQKNTPPEFPEKFKTALLPENIKKNRYSDVLANDDTRVKLNNNGYINANYIFQGRMIASQAPTIETIPDFLQMIIEQQVPIVIMLTKCKEKTRIKATPYWGYKSEGGKKVFGNYTVNTIDTLYDDVEEDKFMEDIQIRYLQIIYEDGVYSFIQIHYMGWPDFGVPLNPKDALDIVYIQYIIGTTSKFSNRNLVCVHCSAGVGRTGVYCLLSRIVEMVTYEILEKSETYSKQRSTSSSSKVREVEDRIEEILLSHPVISYEDCEVILPELVLSIRNERSKMVQTKEQYDFICETVNCFYEDALDSINQYYEVIDALTEGHHHHHH | not soluble
MSLAAYSLPVDVEAEDCTLGNGAVVTTNVYGTQYPGYSGDGFVWVANSGTITLEVTIPENGMYELSTRCWMYLGKEDETRMQVISINGKSHSNYFIPNKGQWIDYSFGFFYLEAGKATIEIGSSGSWGFILYDKIYFDHADMPDHIIDPTPCDPNATPETRALMKYLTSVYGKYVISGQQEIYGNGNDGNYELEFDYIYEKTGKYPAIRGFDFMNYNPLYGWEDGTTARIIDWVKNRGGIATACWHINIPRDFASYKLGEPVDWTNCTYKPTSSFNTANCLDETTKEHAYLMMAIEDLAEQLLILQEQNIPILFRPFHEAEGYNNTDGSGAWFWWGSAGAEVYKELWKLLYKTLTEKYGIHNLIWEVNLYTYANSYEWYPGDEYVDIIGYDKYEGSPNTWGTSAASSLFLTLVNYTNDTKMVALTENDVIPDIQNIVNEEAWWLYFCPWYGDFLMSPRYNDPVLLNTIYNSEYVITLDELPENLYEYDGEIPDINYGDLNNDGNINSTDYMILKKYILKVLERMNVPEKAADLNGDGSINSTDLTILKRFIMKAITKFPVTQKEGHHHHHH | soluble
EDFFNAKVQEQIERYQRYHNTAYNLEPDIKFSPGGLRDLHLLYWVALRHSGALTLEAILQSGFIYPQEYQQLQESRAFLFKVRFALHLILKRYDNRLLFDRQIKVSELLGFRGEGNPAVEKMMKCFFQALHRISLISNLLIQHYRENVLSSNQDTVIDQLDDDFQLINQSLCLRNSFVFQEKPARILDLFFYLTQYEHVNIHSDTLRQL | not soluble
MGSDKIHHHHHHGTISHSVEPGDNLYNLAARYMGNPHAWPDIQKLNHISNPHRLKPGTSLLIPKVSSTVTASFVHGEAWLVDDAGNTIKRIAHGDQLNEGDIVRTGQHSYLSLEFADHSVARILSNTHVRLDRIKESGLVPQGQRVIYLEQGNMDVSVTPAPKCNSQHFKVITPQAVAAVRGTRFSVGVGSVSATSVTQGKVEMQPPQPGKSRSGKMLQAGQGIAASGNGLGEVQPLLAAPDLSQLPSMLPEPELLQFDWPAVNGGSEYQYRIAQDEGMEQVLWNAASYSASATLPSLQDGEYLLAVRALDSYGIPGYEAQHRFIIHSHPSSPWLLSPQQGQPIDGNGILRCTPVEGAQGYHLQIATDDEFRELVVDSGPLDRCQYQLASLAEGDYYWRVASVNAEEEGRLGPYSQPASLTVSQDAHTLPIIAGEAYWTSTLQDARYIAQISRSPRFDTLVAEQELDSPRINIQSLPAGRYYVRLATRLENDTGPFSDARIIEVEHEDNGMDRTWFDKPRS | not soluble
ASMTGGQQMGRGSGPMLIEFNIPVDLKLVEQQNPKVKLGGRYTPMDGASVHKMALLVPFRDRFEELLQFVPHMTAFLKRQGVAHHIFVLNQVDRFRFNRASLINVGFQFASDVYDYIAMHDVDLLPLNDNLLYEYPSSLGPLHIAGPKLHPKYHYDNFVGGILLVRREHFKQMNGMSNQYWGWGLEDDEFFVRIRDAGLQVTRPQNIKTGTNDTFSHIHNRYHRKRDTQKCFNQKEMTRKRDHKTGLDNVKYKILKVHEMLIDQVPVTILNILLDCDVNKTPWCDCS | soluble
MATALYTANDFILISLPQNAQPVTAPGSKTDSWFNETLIGGRAFVSDFKIPEFKIGSLDTLIVESEELSKVDNQIGASIGKIIEILQGLNETSTNAYRTLPINNMPVPEYLENFQWQTRKFKLDKSIKDLITLISNESSQLDADVRATYANYNSAKTNLAAAERKKTGDLSVRSLHDIVKPEDFVLNSEHLTTVLVAVPKSLKSDFEKSYETLSKNVVPASASVIAEDAEYVLFNVHLFKKNVQEFTTAAREKKFIPREFNYSEELIDQLKKEHDSAASLEQSLRVQLVRLAKTAYVDVFINWFHIKALRVYVESVLRYGLPPHFNIKIIAVPPKNLSKCKSELIDAFGFLGGNAFMKDKKGKINKQDTSLHQYASLVDTEYEPFVMYIINL | soluble
